Experiments:
[1] = molecular target: the molecule itself; test: dimer form listed in the table of kinetic constants (self-association)
DPP-IV H750A mutant = molecular target: T1, DPP-IV H750A mutant (human, UniProt P27487 39-766); test: ADA affinity column purification
T1 construct: range 39-766; also called H750A dimer; H750A monomer

DPP-IV H750E mutant = molecular target: T2, DPP-IV H750E mutant (human, UniProt P27487 39-766); test: ADA affinity column purification
T2 construct: range 39-766; Monomeric by AUC

AUC (self-association) = molecular target: the molecule itself; test: AUC (self-association)

B1: DPP-IV V724A mutant (enzyme, human, UniProt P27487 39-766, looked up)
chain: SRKTYTLTDYLKNTYRLKLYSLRWISDHEYLYKQENNILVFNAEYGNSSVFLENSTFDEFGHSINDYSISPDGQFILLEYNYVKQWRHSYTASYDIYDLNKRQLITEERIPNNTQWVTWSPVGHKLAYVWNNDIYVKIEPNLPSYRITWTGKEDIIYNGITDWVYEEEVFSAYSALWWSPNGTFLAYAQFNDTEVPLIEYSFYSDESLQYPKTVRVPYPKAGAVNPTVKFFVVNTDSLSSVTNATSIQITAPASMLIGDHYLCDVTWATQERISLQWLRRIQNYSVMDICDYDESSGRWNCLVARQHIEMSTTGWVGRFRPSEPHFTLDGNSFYKIISNEEGYRHICYFQIDKKDCTFITKGTWEVIGIEALTSDYLYYISNEYKGMPGGRNLYKIQLSDYTKVTCLSCELNPERCQYYSVSFSKEAKYYQLRCSGPGLPLYTLHSSVNDKGLRVLEDNSALDKMLQNVQMPSKKLDFIILNETKFWYQMILPPHFDKSKKYPLLLDVYAGPCSQKADTVFRLNWATYLASTENIIVASFDGRGSGYQGDKIMHAINRRLGTFEVEDQIEAARQFSKMGFVDNKRIAIWGWSYGGYVTSMVLGSGSGVFKCGIAVAPVSRWEYYDSVYTERYMGLPTPEDNLDHYRNSTVMSRAENFKQVEYLLIHGTADDNVHFQQSAQISKALADVGVDFQAMWYTDEDHGIASSTAHQHIYTHMSHFIKQCFSLP
notes: Mixture of monomers and dimers
binding result [1]: binds

B2: DPP-IV F730A mutant (enzyme, human, UniProt P27487 39-766, looked up)
chain: SRKTYTLTDYLKNTYRLKLYSLRWISDHEYLYKQENNILVFNAEYGNSSVFLENSTFDEFGHSINDYSISPDGQFILLEYNYVKQWRHSYTASYDIYDLNKRQLITEERIPNNTQWVTWSPVGHKLAYVWNNDIYVKIEPNLPSYRITWTGKEDIIYNGITDWVYEEEVFSAYSALWWSPNGTFLAYAQFNDTEVPLIEYSFYSDESLQYPKTVRVPYPKAGAVNPTVKFFVVNTDSLSSVTNATSIQITAPASMLIGDHYLCDVTWATQERISLQWLRRIQNYSVMDICDYDESSGRWNCLVARQHIEMSTTGWVGRFRPSEPHFTLDGNSFYKIISNEEGYRHICYFQIDKKDCTFITKGTWEVIGIEALTSDYLYYISNEYKGMPGGRNLYKIQLSDYTKVTCLSCELNPERCQYYSVSFSKEAKYYQLRCSGPGLPLYTLHSSVNDKGLRVLEDNSALDKMLQNVQMPSKKLDFIILNETKFWYQMILPPHFDKSKKYPLLLDVYAGPCSQKADTVFRLNWATYLASTENIIVASFDGRGSGYQGDKIMHAINRRLGTFEVEDQIEAARQFSKMGFVDNKRIAIWGWSYGGYVTSMVLGSGSGVFKCGIAVAPVSRWEYYDSVYTERYMGLPTPEDNLDHYRNSTVMSRAENFKQVEYLLIHGTADDNVHFQQSAQISKALVDVGVDAQAMWYTDEDHGIASSTAHQHIYTHMSHFIKQCFSLP
notes: as for B1
binding result [1]: binds

B3: Bovine adenosine deaminase (ADA) (enzyme, UniProt P56658 2-363, looked up)
chain: AQTPAFNKPKVELHVHLDGAIKPETILYYGRKRGIALPADTPEELQNIIGMDKPLSLPEFLAKFDYYMPAIAGCREAVKRIAYEFVEMKAKDGVVYVEVRYSPHLLANSKVEPIPWNQAEGDLTPDEVVSLVNQGLQEGERDFGVKVRSILCCMRHQPSWSSEVVELCKKYREQTVVAIDLAGDETIEGSSLFPGHVKAYAEAVKSGVHRTVHAGEVGSANVVKEAVDTLKTERLGHGYHTLEDATLYNRLRQENMHFEVCPWSSYLTGAWKPDTEHPVVRFKNDQVNYSLNTDDPLIFKSTLDTDYQMTKNEMGFTEEEFKRLNINAAKSSFLPEDEKKELLDLLYKAYGMPSPASAEQCL
modifications: coupled to CNBr-activated Sepharose 4B (affinity column)
binding result (DPP-IV H750A mutant): binds
binding result (DPP-IV H750E mutant): binds

B4: DPP-IV F713A mutant (enzyme, human, UniProt P27487 39-766, looked up)
chain: SRKTYTLTDYLKNTYRLKLYSLRWISDHEYLYKQENNILVFNAEYGNSSVFLENSTFDEFGHSINDYSISPDGQFILLEYNYVKQWRHSYTASYDIYDLNKRQLITEERIPNNTQWVTWSPVGHKLAYVWNNDIYVKIEPNLPSYRITWTGKEDIIYNGITDWVYEEEVFSAYSALWWSPNGTFLAYAQFNDTEVPLIEYSFYSDESLQYPKTVRVPYPKAGAVNPTVKFFVVNTDSLSSVTNATSIQITAPASMLIGDHYLCDVTWATQERISLQWLRRIQNYSVMDICDYDESSGRWNCLVARQHIEMSTTGWVGRFRPSEPHFTLDGNSFYKIISNEEGYRHICYFQIDKKDCTFITKGTWEVIGIEALTSDYLYYISNEYKGMPGGRNLYKIQLSDYTKVTCLSCELNPERCQYYSVSFSKEAKYYQLRCSGPGLPLYTLHSSVNDKGLRVLEDNSALDKMLQNVQMPSKKLDFIILNETKFWYQMILPPHFDKSKKYPLLLDVYAGPCSQKADTVFRLNWATYLASTENIIVASFDGRGSGYQGDKIMHAINRRLGTFEVEDQIEAARQFSKMGFVDNKRIAIWGWSYGGYVTSMVLGSGSGVFKCGIAVAPVSRWEYYDSVYTERYMGLPTPEDNLDHYRNSTVMSRAENFKQVEYLLIHGTADDNVHAQQSAQISKALVDVGVDFQAMWYTDEDHGIASSTAHQHIYTHMSHFIKQCFSLP
binding result (AUC (self-association)): no binding

B5: DPP-IV W734A mutant (enzyme, human, UniProt P27487 39-766, looked up)
chain: SRKTYTLTDYLKNTYRLKLYSLRWISDHEYLYKQENNILVFNAEYGNSSVFLENSTFDEFGHSINDYSISPDGQFILLEYNYVKQWRHSYTASYDIYDLNKRQLITEERIPNNTQWVTWSPVGHKLAYVWNNDIYVKIEPNLPSYRITWTGKEDIIYNGITDWVYEEEVFSAYSALWWSPNGTFLAYAQFNDTEVPLIEYSFYSDESLQYPKTVRVPYPKAGAVNPTVKFFVVNTDSLSSVTNATSIQITAPASMLIGDHYLCDVTWATQERISLQWLRRIQNYSVMDICDYDESSGRWNCLVARQHIEMSTTGWVGRFRPSEPHFTLDGNSFYKIISNEEGYRHICYFQIDKKDCTFITKGTWEVIGIEALTSDYLYYISNEYKGMPGGRNLYKIQLSDYTKVTCLSCELNPERCQYYSVSFSKEAKYYQLRCSGPGLPLYTLHSSVNDKGLRVLEDNSALDKMLQNVQMPSKKLDFIILNETKFWYQMILPPHFDKSKKYPLLLDVYAGPCSQKADTVFRLNWATYLASTENIIVASFDGRGSGYQGDKIMHAINRRLGTFEVEDQIEAARQFSKMGFVDNKRIAIWGWSYGGYVTSMVLGSGSGVFKCGIAVAPVSRWEYYDSVYTERYMGLPTPEDNLDHYRNSTVMSRAENFKQVEYLLIHGTADDNVHFQQSAQISKALVDVGVDFQAMAYTDEDHGIASSTAHQHIYTHMSHFIKQCFSLP
notes: Monomer by AUC
binding result (AUC (self-association)): no binding

B6: DPP-IV Y735A mutant (enzyme, human, UniProt P27487 39-766, looked up)
chain: SRKTYTLTDYLKNTYRLKLYSLRWISDHEYLYKQENNILVFNAEYGNSSVFLENSTFDEFGHSINDYSISPDGQFILLEYNYVKQWRHSYTASYDIYDLNKRQLITEERIPNNTQWVTWSPVGHKLAYVWNNDIYVKIEPNLPSYRITWTGKEDIIYNGITDWVYEEEVFSAYSALWWSPNGTFLAYAQFNDTEVPLIEYSFYSDESLQYPKTVRVPYPKAGAVNPTVKFFVVNTDSLSSVTNATSIQITAPASMLIGDHYLCDVTWATQERISLQWLRRIQNYSVMDICDYDESSGRWNCLVARQHIEMSTTGWVGRFRPSEPHFTLDGNSFYKIISNEEGYRHICYFQIDKKDCTFITKGTWEVIGIEALTSDYLYYISNEYKGMPGGRNLYKIQLSDYTKVTCLSCELNPERCQYYSVSFSKEAKYYQLRCSGPGLPLYTLHSSVNDKGLRVLEDNSALDKMLQNVQMPSKKLDFIILNETKFWYQMILPPHFDKSKKYPLLLDVYAGPCSQKADTVFRLNWATYLASTENIIVASFDGRGSGYQGDKIMHAINRRLGTFEVEDQIEAARQFSKMGFVDNKRIAIWGWSYGGYVTSMVLGSGSGVFKCGIAVAPVSRWEYYDSVYTERYMGLPTPEDNLDHYRNSTVMSRAENFKQVEYLLIHGTADDNVHFQQSAQISKALVDVGVDFQAMWATDEDHGIASSTAHQHIYTHMSHFIKQCFSLP
notes: Monomer by AUC
binding result (AUC (self-association)): no binding

B7: DPP-IV Y248A mutant (enzyme, human, UniProt P27487 39-766, looked up)
chain: SRKTYTLTDYLKNTYRLKLYSLRWISDHEYLYKQENNILVFNAEYGNSSVFLENSTFDEFGHSINDYSISPDGQFILLEYNYVKQWRHSYTASYDIYDLNKRQLITEERIPNNTQWVTWSPVGHKLAYVWNNDIYVKIEPNLPSYRITWTGKEDIIYNGITDWVYEEEVFSAYSALWWSPNGTFLAYAQFNDTEVPLIEYSFYSDESLQAPKTVRVPYPKAGAVNPTVKFFVVNTDSLSSVTNATSIQITAPASMLIGDHYLCDVTWATQERISLQWLRRIQNYSVMDICDYDESSGRWNCLVARQHIEMSTTGWVGRFRPSEPHFTLDGNSFYKIISNEEGYRHICYFQIDKKDCTFITKGTWEVIGIEALTSDYLYYISNEYKGMPGGRNLYKIQLSDYTKVTCLSCELNPERCQYYSVSFSKEAKYYQLRCSGPGLPLYTLHSSVNDKGLRVLEDNSALDKMLQNVQMPSKKLDFIILNETKFWYQMILPPHFDKSKKYPLLLDVYAGPCSQKADTVFRLNWATYLASTENIIVASFDGRGSGYQGDKIMHAINRRLGTFEVEDQIEAARQFSKMGFVDNKRIAIWGWSYGGYVTSMVLGSGSGVFKCGIAVAPVSRWEYYDSVYTERYMGLPTPEDNLDHYRNSTVMSRAENFKQVEYLLIHGTADDNVHFQQSAQISKALVDVGVDFQAMWYTDEDHGIASSTAHQHIYTHMSHFIKQCFSLP
notes: Monomer by AUC
binding result (AUC (self-association)): no binding

B8: DPP-IV F713R mutant (enzyme, human, UniProt P27487 39-766, looked up)
chain: SRKTYTLTDYLKNTYRLKLYSLRWISDHEYLYKQENNILVFNAEYGNSSVFLENSTFDEFGHSINDYSISPDGQFILLEYNYVKQWRHSYTASYDIYDLNKRQLITEERIPNNTQWVTWSPVGHKLAYVWNNDIYVKIEPNLPSYRITWTGKEDIIYNGITDWVYEEEVFSAYSALWWSPNGTFLAYAQFNDTEVPLIEYSFYSDESLQYPKTVRVPYPKAGAVNPTVKFFVVNTDSLSSVTNATSIQITAPASMLIGDHYLCDVTWATQERISLQWLRRIQNYSVMDICDYDESSGRWNCLVARQHIEMSTTGWVGRFRPSEPHFTLDGNSFYKIISNEEGYRHICYFQIDKKDCTFITKGTWEVIGIEALTSDYLYYISNEYKGMPGGRNLYKIQLSDYTKVTCLSCELNPERCQYYSVSFSKEAKYYQLRCSGPGLPLYTLHSSVNDKGLRVLEDNSALDKMLQNVQMPSKKLDFIILNETKFWYQMILPPHFDKSKKYPLLLDVYAGPCSQKADTVFRLNWATYLASTENIIVASFDGRGSGYQGDKIMHAINRRLGTFEVEDQIEAARQFSKMGFVDNKRIAIWGWSYGGYVTSMVLGSGSGVFKCGIAVAPVSRWEYYDSVYTERYMGLPTPEDNLDHYRNSTVMSRAENFKQVEYLLIHGTADDNVHRQQSAQISKALVDVGVDFQAMWYTDEDHGIASSTAHQHIYTHMSHFIKQCFSLP
binding result (AUC (self-association)): no binding
